From publication PMC6180082, “Structural Analysis of an Epitope Candidate of Triosephosphate Isomerase in Opisthorchis viverrini” (Scientific Reports, 2018)

Molecular target: the molecule itself
Test: crystal structure; OvTIM wild-type at ~80 mg/ml, hanging-drop vapor diffusion, 0.3 M magnesium chloride hexahydrate, 0.1 M Tris pH 8.5, 22% PEG 3350, 20 °C; molecular replacement; two homodimers in the asymmetric unit

B1: Triosephosphate isomerase from Opisthorchis viverrini (OvTIM), wild-type (enzyme)
chain: MPTDRKFFVGGNWKMNGSKKENDKLIEMLTHAKIDPNTEVLVAPPSLYLPSVREKLDKRFHVAAQNCYKVPSGAFTGEVSPAMLKDVGCDWVILGHSERRHILMETDQLVGEKTNHAISAGVNVIACIGEKLEEREAGKTEEVCFRQMEAIRKNLSSADMWNHIVIAYEPVWAIGTGKTATEQQAQEVHLAVRKWMEEKVSPAVANSIRIIYGGSVTAANCRTLAKQPDVDGFLVGGASLKPDFIEICNANA
notes: Triosephosphate isomerase (EC 5.3.1.1) of Opisthorchis viverrini; cDNA synthesized and cloned NdeI/XhoI into pET17b with a 6 His-tag and thrombin site; residues 175-179 have no clear electron density in the crystal; a thrombin site lies between tag and protein; source: E. coli BL21 (DE3) pLysS, purified (HisTrap HP, HiTrap Q HP, Superdex-200 SEC)
B1: binds.
